The values below are quoted from earlier work in PMC3394898.

The data set deals with NTSR1 (Mus musculus) (UniProt O88319).
UniProt O88319, sequence (O88319 whole entry): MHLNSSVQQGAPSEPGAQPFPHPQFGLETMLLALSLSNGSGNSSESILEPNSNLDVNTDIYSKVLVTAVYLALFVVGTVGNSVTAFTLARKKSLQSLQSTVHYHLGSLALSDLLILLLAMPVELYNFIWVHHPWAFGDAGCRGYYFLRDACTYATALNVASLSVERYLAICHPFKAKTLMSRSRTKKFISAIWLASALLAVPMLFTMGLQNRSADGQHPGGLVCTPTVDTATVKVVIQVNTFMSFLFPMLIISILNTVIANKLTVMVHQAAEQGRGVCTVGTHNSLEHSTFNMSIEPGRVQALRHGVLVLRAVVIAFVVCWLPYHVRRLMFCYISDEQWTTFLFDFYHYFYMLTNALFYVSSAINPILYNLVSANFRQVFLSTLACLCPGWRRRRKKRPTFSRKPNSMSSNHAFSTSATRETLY

In general, Kd refers to the equilibrium constant for the complex coming apart. Consider neurotensin (NTS) (from UniProt P30990), for which the dissociation constant (Kd) is 5 nM.
